# Reference: patent US20240158474A1 (SINO BIOLOGICAL, published 2024)
# T1: HPV31 VLP protein (human papillomavirus type 31; human …, UniProt P17388 1-475; P06416 474-499)
# T1 construct: range 1-475;range 474-499; Complete VLP protein used as coating protein; also called P31SHELL(1-475Y)+HPV33L1(474K-499K)
# T1 sequence: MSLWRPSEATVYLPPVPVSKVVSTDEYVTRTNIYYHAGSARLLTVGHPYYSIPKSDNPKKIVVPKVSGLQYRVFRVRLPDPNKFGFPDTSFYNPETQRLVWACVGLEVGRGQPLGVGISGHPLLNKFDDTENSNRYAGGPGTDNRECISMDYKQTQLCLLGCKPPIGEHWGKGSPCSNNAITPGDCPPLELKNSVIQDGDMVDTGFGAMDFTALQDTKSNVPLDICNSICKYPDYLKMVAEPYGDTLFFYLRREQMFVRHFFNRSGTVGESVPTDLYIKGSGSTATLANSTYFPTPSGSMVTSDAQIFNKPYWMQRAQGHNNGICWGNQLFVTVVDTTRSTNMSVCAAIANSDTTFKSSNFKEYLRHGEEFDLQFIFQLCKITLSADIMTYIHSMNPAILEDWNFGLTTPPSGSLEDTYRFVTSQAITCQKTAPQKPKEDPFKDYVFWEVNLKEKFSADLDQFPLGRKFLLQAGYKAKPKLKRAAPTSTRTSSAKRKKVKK
# T2: HPV35 VLP protein (human papillomavirus type 35; human …, UniProt P27232 1-472; P06416 474-499)
# T2 construct: range 1-472;range 474-499; Complete VLP protein used as coating protein; also called HPV35L1(1-472L)+HPV33L1(474K-499K)
# T2 sequence: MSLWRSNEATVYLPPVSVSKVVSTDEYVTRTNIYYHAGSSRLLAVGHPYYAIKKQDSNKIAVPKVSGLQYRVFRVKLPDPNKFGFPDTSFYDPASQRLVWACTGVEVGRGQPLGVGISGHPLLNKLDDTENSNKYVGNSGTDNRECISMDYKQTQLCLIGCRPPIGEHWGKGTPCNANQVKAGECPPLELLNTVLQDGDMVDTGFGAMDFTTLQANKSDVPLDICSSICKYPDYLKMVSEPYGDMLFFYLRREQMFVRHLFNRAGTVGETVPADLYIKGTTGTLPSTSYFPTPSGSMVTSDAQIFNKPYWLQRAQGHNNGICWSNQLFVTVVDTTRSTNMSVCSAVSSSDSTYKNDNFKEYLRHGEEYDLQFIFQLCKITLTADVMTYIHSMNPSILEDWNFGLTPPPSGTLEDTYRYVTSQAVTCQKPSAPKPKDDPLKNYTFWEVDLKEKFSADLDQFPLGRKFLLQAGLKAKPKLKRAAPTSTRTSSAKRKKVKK
# T3: HPV45 VLP protein (human papillomavirus type 45; human …, UniProt P36741 1-478; P06416 474-499)
# T3 construct: range 1-478;range 474-499; Complete VLP protein used as coating protein; also called HPV45L1(1-478L)+HPV33L1(474K-499K)
# T3 sequence: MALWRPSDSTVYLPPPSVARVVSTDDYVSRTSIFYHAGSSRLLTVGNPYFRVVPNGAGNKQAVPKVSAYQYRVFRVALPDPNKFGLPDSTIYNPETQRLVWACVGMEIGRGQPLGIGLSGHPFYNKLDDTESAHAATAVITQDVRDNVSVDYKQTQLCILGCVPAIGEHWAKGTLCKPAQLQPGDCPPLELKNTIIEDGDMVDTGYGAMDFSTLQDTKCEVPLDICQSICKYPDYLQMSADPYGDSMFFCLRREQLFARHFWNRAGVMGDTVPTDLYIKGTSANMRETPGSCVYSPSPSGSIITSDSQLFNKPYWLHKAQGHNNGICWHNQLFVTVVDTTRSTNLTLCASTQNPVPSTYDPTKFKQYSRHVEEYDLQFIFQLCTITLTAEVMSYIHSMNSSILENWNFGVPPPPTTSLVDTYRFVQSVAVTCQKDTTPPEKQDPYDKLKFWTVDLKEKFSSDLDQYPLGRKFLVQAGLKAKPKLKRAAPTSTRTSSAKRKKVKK
# What was measured:
# Assay in all cases: double-antibody sandwich ELISA on the mixture of 13 HPV VLPs
# [1] = molecular target: T1, HPV31 VLP protein
# [2] = molecular target: T2, HPV35 VLP protein
# [3] = molecular target: T3, HPV45 VLP protein
binder,measurement,setting,value
"monoclonal antibody HPV6-R003 (antibody, V domains shown, here built from variable plus constant region so that the signal peptides are left out; In the sandwich ELISA the same antibody is used as coating antibody and, labelled with horseradish peroxidase, as detection antibody; also called anti-HPV6 L1 protein antibody) VH: QQQLEESGGGLVKPGGTLTLTCKASGIDLSNYYMCWVRQAPGKGLEWIGCIYTGSGRTYYASWAKGRFTISKASSTTVTLQMTSLTAADTATYFCARDYLGWRASNIWGPGTLVTVSS VL: ELVMTQTPSSVSAAVGGTVTINCQASQSVYSNNLVWYQQKPGQPPKLLIYGASTLASGVPSRFKGSGSGTQFTLTISDVVCDDAATYYCGGYVSDSTDGTAFGGGTEVVVKG",binding result,[1],"no binding (tested: mixture 50 ng/mL, each subtype 1/13)"
same,binding result,[2],"no binding (tested: mixture 50 ng/mL, each subtype 1/13)"
same,binding result,[3],"no binding (tested: mixture 50 ng/mL, each subtype 1/13)"
